This test concerns the target HLA-A2 (HLA-A*02:01) on cells (T2 cells; K562A2 cells) (human). The test can be described thus: T2 peptide-binding assay: T2 cells with peptide at 100 µg/mL overnight, surface HLA-A2 by flow cytometry (T2 only: 3.34E+05). The note with it: remark: other sources report otherwise. Background: In flow cytometry, cells or beads pass a laser one at a time.

The molecule NTDNNLAVY (peptide, UniProt Q5H943 52-60, looked up) [KKLC1 p52-60 peptide (HLA-A1 restricted control), Q5H943 52-60] had a Mean Fluorescence Intensity (surface HLA-A2) of 305000.

Values taken from patent publication US20240239864A1.
